Experimental data: the nanobody polyreactivity screen of Harvey et al. (2022)

Test: yeast display, Sf9 membrane polyspecificity reagent, FACS + sequencing; frameworks hold sequencing errors
Method in brief: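 A synthetic nanobody library was expressed on Saccharomyces cerevisiae BJ5465 by galactose induction for 36–48 hours. The library was stained for 1 hour at 4 °C with 10% biotinylated, detergent-solubilized Sf9 membrane reagent and enriched with streptavidin microbeads before FACS. Low and high (top ~1%) gates were set on anti-HA fluorescence for expression and streptavidin fluorescence for reagent binding, and each polyreactivity label reflects the gate of origin.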
With “QVQLVESGGGLVQAGGSLRLSCAASGSIFIDNAMGWYRQAPGKERELVAAITVRGASTNYADSVKGRFTISRDIAKNTVYLQMNSLKPEDTAVYYCNAVGLRSPWHQDFLIRYDYWGQGTQVTVSS” the “polyreactivity (PSR sort gate)” value was “low polyreactivity”. For “QVQLVESGGGLVQAGGSLRLSCAASGSIFIGSVMGWYRQAPGKERELVADITWSGGSTYYADSVKGRFTISRANAKNTVYLQMNSLKPEDTAVYYCAARTFVIGDYDYWYALDSWGQGTQVTVSS”, the “polyreactivity (PSR sort gate)” value was “low polyreactivity”. In the case of “QVQLVESGGGLVQAGGSLRLSCAASGSIFIGYAMGWYRQAPGKERELVASIRNGGSTNYADSVKGRFTISRDNAKNTVYLQMNSLKPEDTAVYYCAGRYPVFLVSFGFDYWGQGTQVTVSS”, the “polyreactivity (PSR sort gate)” value is reported as “low polyreactivity”. With “QVQLVESGGGLVQAGGSLRLSCAASGSIFIIYAMGRYRQAPGKERELVAAIRGRGGSTYYADSVKGRFTISRDKAKNTVYLEMNSLNPEDSAVYYCAASVDRGYNYWGEGTQVTVSS” the “polyreactivity (PSR sort gate)” value was “high polyreactivity”. In the case of “QVQLVESGGGLVQAGGSLRLSCAASGSIFILYAMGWYRQAPGKERELVAAISSTGTTYYADSVKGRFTISRDNAKNTVYLQMNSLKPEDSAVYYCAADIYPDWIYLLYGYWGQGTQVTVSS”, the “polyreactivity (PSR sort gate)” value is reported as “low polyreactivity”. With “QVQLVESGGGLVQAGGSLRLSCAASGSIFILYMGWYRQAPGKERELVATISSGGSTNYADSVKGRFTISRDNAKNTVYLQMNSLKPEDTAVYYCNARGSERVDTYSLYDYWGQGTQVTVSS” the “polyreactivity (PSR sort gate)” value was “low polyreactivity”. For “QVQLVESGGGLVQAGGSLRLSCAASGSIFIPNAMGWYRQAPGKERELVAAISLSDTTTYYADSVKGRFTISRDNAKNTVYLQMNSLKPEDTAVYYCNKLTYGRVWDHHYDYWGQGTQVTVSS”, the “polyreactivity (PSR sort gate)” value was “low polyreactivity”. For “QVQLVESGGGLVQAGGSLRLSCAASGSIFIPNAMGWYRQAPGTERELVAAISLSDTTTYYADSVKGRFTISRDNAKNTVYLQMNSLKPEDTAVYYCAADYWFYPTSPDMDYWGQGTQVTVSS”, the “polyreactivity (PSR sort gate)” value was “low polyreactivity”. In the case of “QVQLVESGGGLVQAGGSLRLSCAASGSIFIPYTMGWYRQEPGKARELVAAITKRGGSTYYADSVKGRFTISRDNAKNSVYLQMNSLKPEDTAVYYCNAIKYDPGRWAEYGYWGQGTQVTVSS”, the “polyreactivity (PSR sort gate)” value is reported as “high polyreactivity”. For “QVQLVESGGGLVQAGGSLRLSCAASGSIFIQYAMGWYRQAPGKERELVAAINSSGGRTYYADSVKGRFTISRDNAKNTVYLQMNRLKPEDTAVYYCAADHGSSFDWGQGTQVTVSS”, the “polyreactivity (PSR sort gate)” value was “low polyreactivity”. In the case of “QVQLVESGGGLVQAGGSLRLSCAASGSIFITYAMGWYRQAPGKDRELVATITSRSGGTYYADSVKGRFTISRDNAKNTVYLQMNSLKQEDTAVYYCNAVYTYPVFHGMGYWGQGTQVTVSS”, the “polyreactivity (PSR sort gate)” value is reported as “high polyreactivity”. For “QVQLVESGGGLVQAGGSLRLSCAASGSIFIVNAMGWYRQAPGKERELVAAITWSGGNTYYADSVKGRFTISRDNAKNTVYLQMNSLKPEDTAVYYCNSYWRGAFDYWGQGTQVTVSS”, the “polyreactivity (PSR sort gate)” value was “high polyreactivity”. With “QVQLVESGGGLVQAGGSLRLSCAASGSIFIVYAMGWYRQAPGKERELVATITSGGSTNYADSVKGRFTISRDNAKNTVYLQMNSLKPEDTAVYYCAAESYWGSGVVPGYDYWGQGTQVTVSS” the “polyreactivity (PSR sort gate)” value was “low polyreactivity”. In the case of “QVQLVESGGGLVQAGGSLRLSCAASGSIFIYNAMGWYRQAPGKERELVASITYRGGSTYYADSVKGRFTISRDKAKNTVYLQMNSLKPEDTAVYYCNAPQYFSYSWPYPREYDYWGQGTQVTVSS”, the “polyreactivity (PSR sort gate)” value is reported as “high polyreactivity”. For “QVQLVESGGGLVQAGGSLRLSCAASGSIFIYNVMGWYRPAPGKERELVATSRGSGGSTYYADSVKGRFTISRDTAKNTVYLHMNSLKPEDTAVYFCCRRDYPYQWGRAYNYWGQGTQVTVSS”, the “polyreactivity (PSR sort gate)” value was “high polyreactivity”. With “QVQLVESGGGLVQAGGSLRLSCAASGSIFIYYAMGWYRQAPGKERELVAAITWRSGSTYYADSVKGRFTISRDNAKNTVYFQRNSLKPEDNAVNYCAAYAWTATDSARPYGYDYWGQGTQVTVSS” the “polyreactivity (PSR sort gate)” value was “low polyreactivity”. In the case of “QVQLVESGGGLVQAGGSLRLSCAASGSIFKAYAMGWYRQAPGKERELVAAISTSDGSTYYADSVKGRFTISRDNAKNNVYLLMNSLKPEDTAVYYCATEYDYWDDSYDYWGQGTQVTVSS”, the “polyreactivity (PSR sort gate)” value is reported as “low polyreactivity”. In the case of “QVQLVESGGGLVQAGGSLRLSCAASGSIFKAYAMGWYSQAPGKERELVAAITWSGGSTYYADSVKGRFTISRDNAKYTVYLQMNSLKPEDTAVYYCAADRLEGYYEDDATGFDYWGQGTQVTVSS”, the “polyreactivity (PSR sort gate)” value is reported as “low polyreactivity”. With “QVQLVESGGGLVQAGGSLRLSCAASGSIFKCNAMGWYRQAPGKERELVASITRSGGSTYYADSVKGRFTISRDNAKNTVYLQMNSLKPEDTAVYYCARSYGWYRWAGYDYWGQGTQVTVSS” the “polyreactivity (PSR sort gate)” value was “high polyreactivity”. In the case of “QVQLVESGGGLVQAGGSLRLSCAASGSIFKFYAMGWYRQAPGKEREMVAVITYIGGSTYYADSVKGRFTISRDNAKNTVYLQMNSLKPEDTAVYYCNKDGAFHWVGSDPVYLFEYWGQGTQVTVSS”, the “polyreactivity (PSR sort gate)” value is reported as “low polyreactivity”. In the case of “QVQLVESGGGLVQAGGSLRLSCAASGSIFKGNAMGWYRQAPGKERDLVAAISRSGGSTYYADSVKGRFTISRDNAKNTVYLQMNSLKPEDTAVYYCNAVRRNTVRSKGRYDYWGQGTQVTVSS”, the “polyreactivity (PSR sort gate)” value is reported as “high polyreactivity”. In the case of “QVQLVESGGGLVQAGGSLRLSCAASGSIFKINAMGWYRQAPGKEREWVAAITRSGGSTYYADSVKGRFTISLDNAKNTVYLQMNSLKPEDTAVYYCNASTSRSTSLSSRFYYWGQGTQVTVSS”, the “polyreactivity (PSR sort gate)” value is reported as “high polyreactivity”. For “QVQLVESGGGLVQAGGSLRLSCAASGSIFKINTMGWYRQAPGKERELVAAISKRGGSTYYADSVKGRFTISRDNAKNTVYLQMNSLKTEDTAVYYCAARQFYKYYYWGQGTQVTVSS”, the “polyreactivity (PSR sort gate)” value was “high polyreactivity”. In the case of “QVQLVESGGGLVQAGGSLRLSCAASGSIFKPYAMGWYRQAPGKERELVAVISWRGGSTYYADSVKGRFTISRDYAKNTVYFQMNSLKPEDTAVYYCAARRYRYFDGTVPLDYWGQGTQVSVSS”, the “polyreactivity (PSR sort gate)” value is reported as “high polyreactivity”. With “QVQLVESGGGLVQAGGSLRLSCAASGSIFKRNAMVSYRQAPGKERELVASISSGGSTHYADSVKGRFTISRDNAKNTVYLQMNSLTPEDTAVYYCAATSIRWSVCSFRRDYWGQGTQVTVSS” the “polyreactivity (PSR sort gate)” value was “low polyreactivity”. In the case of “QVQLVESGGGLVQAGGSLRLSCAASGSIFKRNDMGWYRQAPGKERELVAAITWSGGSTYYADSVKGRFTISRDNAKNTVYLQMNSLKPEDTAVYYCNAARDDWYIIKYDYWGQGTQVTVSS”, the “polyreactivity (PSR sort gate)” value is reported as “low polyreactivity”. For “QVQLVESGGGLVQAGGSLRLSCAASGSIFKRNDMGWYRQAPGKERELVASISWGGTSTYYADSVKGRLTISRDLAKNTVYLKMYSLKPEDTAVYYCAARGLYTYKTYDDWGQGTLVTVSS”, the “polyreactivity (PSR sort gate)” value was “low polyreactivity”. For “QVQLVESGGGLVQAGGSLRLSCAASGSIFKRYAMGWDRQAPGKERELVASISSRGSSTNYADSVKGRFTISRDNAKNTVYLQMNSLKPEDTAVYYCAAEVYRGKYWSTYRGGDYWGQGTQVTVSS”, the “polyreactivity (PSR sort gate)” value was “high polyreactivity”. In the case of “QVQLVESGGGLVQAGGSLRLSCAASGSIFKTNARGLYRQAPGTEREFVAAISWSGGSTYADSVKGRFTISRDTAKNTVYLQMNSLKPEDTAVYYCAAVDYYYYGVYSSWYDYWGQGTQVTVSS”, the “polyreactivity (PSR sort gate)” value is reported as “low polyreactivity”. For “QVQLVESGGGLVQAGGSLRLSCAASGSIFKTYAMGWYRQAPGKERELVAAISRSTSRTYYADSVKGRFTISRDNAKNTVYLQMNSLKPEDTAVYYCAAHRSTRGTKLYYWGQGTQVTVSS”, the “polyreactivity (PSR sort gate)” value was “high polyreactivity”. In the case of “QVQLVESGGGLVQAGGSLRLSCAASGSIFKVYAMGWYRQAPGKERELVAAITGGGRTYYADSVKGRFTISRDNAKNTVYLQMNSLKPEDTAVYYCNAVRGGYHVRYDYWGQGTQVTVSS”, the “polyreactivity (PSR sort gate)” value is reported as “high polyreactivity”. For “QVQLVESGGGLVQAGGSLRLSCAASGSIFKVYAMGWYRQAPGKEREWVAAITWRGGSTYYADSVKGRFTISRDNAKNTVYLQMKSLKPEDTAVYYCGTEYCWKYDYWGQGTQVTVSS”, the “polyreactivity (PSR sort gate)” value was “low polyreactivity”. For “QVQLVESGGGLVQAGGSLRLSCAASGSIFKWYAMGWYRQAPGKEREFVAAITNGGGSTYYADSVKGRFTISRDNAKNTVYLQMNSLKPEDTAVYYCAKDGHSYYPWEYDYWGQGTQVTVSS”, the “polyreactivity (PSR sort gate)” value was “low polyreactivity”. For “QVQLVESGGGLVQAGGSLRLSCAASGSIFKWYTMGWYRQAPGKERELVAAITWGGGSTYYADSVKGRFTISRDNEKNTVYLQMNSLKPEDTAVYYCNREGWHYGPYGYWGQGTLVTVSS”, the “polyreactivity (PSR sort gate)” value was “low polyreactivity”. In the case of “QVQLVESGGGLVQAGGSLRLSCAASGSIFKYFTMGWYRHAPGKERELVAYISSGGSTKYADSVKGRFTISRDNAKNTVYLQMNSLKPEDTAVYYCAKRYYYFYPDYDYWGQGTQVTVSS”, the “polyreactivity (PSR sort gate)” value is reported as “high polyreactivity”. With “QVQLVESGGGLVQAGGSLRLSCAASGSIFKYNAMGWYRQAPGKERELVAAIRWSGVGTRYADSVKGRFTISRDNAKNTVYLQMNSLKPEDTAVYYCAADVTKYHDGHEYDYWGQGTQVTVSS” the “polyreactivity (PSR sort gate)” value was “low polyreactivity”. With “QVQLVESGGGLVQAGGSLRLSCAASGSIFKYYAMGWYRQAPGKERELVAAISNGGSTNYADSLKGRFTISRDNAKNTVYLQMNSLKPEDTAVYYCAAGWFGYSAKYDYWGQGTRVTVSS” the “polyreactivity (PSR sort gate)” value was “high polyreactivity”. For “QVQLVESGGGLVQAGGSLRLSCAASGSIFKYYTMGGYRQAPGKERELVAAISGSGSRTYYADSVKGRFTISRDNAKNTVYLQMNSLKPEDTAVYYCAAEVKDSFVNAKSYYWGQGTQVTVSS”, the “polyreactivity (PSR sort gate)” value was “high polyreactivity”. In the case of “QVQLVESGGGLVQAGGSLRLSCAASGSIFKYYTMGWYRQAPGKERELVAAISGSGSRTYYADSVKGRFTISRDNAKNTVYLQMNSLKPEDTAVYYCAAEVKDSFVNAKSYYWGQGTQVTVSS”, the “polyreactivity (PSR sort gate)” value is reported as “high polyreactivity”. In the case of “QVQLVESGGGLVQAGGSLRLSCAASGSIFKYYTMGWYRQAPGKERELVSGISYRGGSTYYADSVKGRFTISRDNAKNTVYLQMNSLKPEDTAVYYCNAVQLSGGDYWGQGTQVTVSS”, the “polyreactivity (PSR sort gate)” value is reported as “high polyreactivity”. In the case of “QVQLVESGGGLVQAGGSLRLSCAASGSIFLAYAMGWYRQAPGKERELVAAITAGTGSTYYADSVKGRFTISRDNAKNTVYLQMNSLKPEDTAVYYCAKAVSLFRGPFSSFDYWGQGTQVTVSS”, the “polyreactivity (PSR sort gate)” value is reported as “low polyreactivity”. For “QVQLVESGGGLVQAGGSLRLSCAASGSIFLDNAKGWYRQAPGKERELVSAISSGGNTNYADSVKGRFTISRDNAKNTVSLQMNSLKPEDTAVYYCAADPTKWHYYVPRYYYWGQGTQVTVSS”, the “polyreactivity (PSR sort gate)” value was “low polyreactivity”. In the case of “QVQLVESGGGLVQAGGSLRLSCAASGSIFLDYAMGWYRQAPGKERELVAGITISGGSTYYADSVKGRFTISRDNAKNTVYLQMNSLKPEDTSVYYCAKVAPRSSSSQEYYYWGQGTQVTVSS”, the “polyreactivity (PSR sort gate)” value is reported as “low polyreactivity”.
